The results in this text go back to US20180298097A1.

The target in experiment [1] is mouse TIM3 (mouse) (UniProt Q8VIM0). Kind of experiment: binding to activated mouse T cells, compared with TIM3.18 binding to human TIM-3.
Experiment [2] shares this target. Kind of experiment: binding to activated mouse T cells; method not described.
The target of experiment [3] is CHO-huTIM3 (UniProt Q8TDQ0). The experiment can be described thus: FACS binding, CHO-huTIM3 transfectant; isotype control. In general terms: A flow cytometer gives signals particle by particle.

mouse TIM3 (mouse), sequence (Q8VIM0 20-281): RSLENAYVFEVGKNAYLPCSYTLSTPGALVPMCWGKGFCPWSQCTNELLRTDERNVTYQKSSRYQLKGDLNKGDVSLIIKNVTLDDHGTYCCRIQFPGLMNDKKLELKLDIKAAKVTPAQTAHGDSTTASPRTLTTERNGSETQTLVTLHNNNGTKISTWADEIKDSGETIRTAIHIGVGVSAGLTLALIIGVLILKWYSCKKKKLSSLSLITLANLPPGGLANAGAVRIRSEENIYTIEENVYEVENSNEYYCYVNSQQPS

For the substance “rat anti-mouse TIM-3 antibody RMT3-23 (Bio-X-Cell)”, the fold weaker EC50 than TIM3.18 on human TIM-3 in experiment [1] worked out at 17 fold. The same substance gave an EC50 in experiment [2] of 1.7 nM.
Regarding hIgG2, the EC50 in experiment [3] came out at 42.3 mg/mL.
In the case of hIgG4, the EC50 in experiment [3] amounted to 29.3 mg/mL.

The EC50 is the concentration giving half of the maximal effect. Low readings indicate higher potency in that assay, high ones lower potency in that assay.
